In paper PMC2882879 (Biochemistry, 2010):
Blank lines part the entries; values can stand above or below the molecule they belong to.

Key:
LRP6 (Homo sapiens) = LRP6 (Homo sapiens) (UniProt O75581); experiment: solid phase enzyme-linked binding assay; settings: cited from earlier work
[1] = biological target: human low-density lipoprotein receptor-related protein-5 on stably transfected ldl-7 (LDLR-deficient CHO) … (human, UniProt O75197 32-1615); experiment: radioligand binding
Chain of human low-density lipoprotein receptor-related protein-5 on stably transfected ldl-7 (LDLR-deficient CHO) … (O75197 32-1615): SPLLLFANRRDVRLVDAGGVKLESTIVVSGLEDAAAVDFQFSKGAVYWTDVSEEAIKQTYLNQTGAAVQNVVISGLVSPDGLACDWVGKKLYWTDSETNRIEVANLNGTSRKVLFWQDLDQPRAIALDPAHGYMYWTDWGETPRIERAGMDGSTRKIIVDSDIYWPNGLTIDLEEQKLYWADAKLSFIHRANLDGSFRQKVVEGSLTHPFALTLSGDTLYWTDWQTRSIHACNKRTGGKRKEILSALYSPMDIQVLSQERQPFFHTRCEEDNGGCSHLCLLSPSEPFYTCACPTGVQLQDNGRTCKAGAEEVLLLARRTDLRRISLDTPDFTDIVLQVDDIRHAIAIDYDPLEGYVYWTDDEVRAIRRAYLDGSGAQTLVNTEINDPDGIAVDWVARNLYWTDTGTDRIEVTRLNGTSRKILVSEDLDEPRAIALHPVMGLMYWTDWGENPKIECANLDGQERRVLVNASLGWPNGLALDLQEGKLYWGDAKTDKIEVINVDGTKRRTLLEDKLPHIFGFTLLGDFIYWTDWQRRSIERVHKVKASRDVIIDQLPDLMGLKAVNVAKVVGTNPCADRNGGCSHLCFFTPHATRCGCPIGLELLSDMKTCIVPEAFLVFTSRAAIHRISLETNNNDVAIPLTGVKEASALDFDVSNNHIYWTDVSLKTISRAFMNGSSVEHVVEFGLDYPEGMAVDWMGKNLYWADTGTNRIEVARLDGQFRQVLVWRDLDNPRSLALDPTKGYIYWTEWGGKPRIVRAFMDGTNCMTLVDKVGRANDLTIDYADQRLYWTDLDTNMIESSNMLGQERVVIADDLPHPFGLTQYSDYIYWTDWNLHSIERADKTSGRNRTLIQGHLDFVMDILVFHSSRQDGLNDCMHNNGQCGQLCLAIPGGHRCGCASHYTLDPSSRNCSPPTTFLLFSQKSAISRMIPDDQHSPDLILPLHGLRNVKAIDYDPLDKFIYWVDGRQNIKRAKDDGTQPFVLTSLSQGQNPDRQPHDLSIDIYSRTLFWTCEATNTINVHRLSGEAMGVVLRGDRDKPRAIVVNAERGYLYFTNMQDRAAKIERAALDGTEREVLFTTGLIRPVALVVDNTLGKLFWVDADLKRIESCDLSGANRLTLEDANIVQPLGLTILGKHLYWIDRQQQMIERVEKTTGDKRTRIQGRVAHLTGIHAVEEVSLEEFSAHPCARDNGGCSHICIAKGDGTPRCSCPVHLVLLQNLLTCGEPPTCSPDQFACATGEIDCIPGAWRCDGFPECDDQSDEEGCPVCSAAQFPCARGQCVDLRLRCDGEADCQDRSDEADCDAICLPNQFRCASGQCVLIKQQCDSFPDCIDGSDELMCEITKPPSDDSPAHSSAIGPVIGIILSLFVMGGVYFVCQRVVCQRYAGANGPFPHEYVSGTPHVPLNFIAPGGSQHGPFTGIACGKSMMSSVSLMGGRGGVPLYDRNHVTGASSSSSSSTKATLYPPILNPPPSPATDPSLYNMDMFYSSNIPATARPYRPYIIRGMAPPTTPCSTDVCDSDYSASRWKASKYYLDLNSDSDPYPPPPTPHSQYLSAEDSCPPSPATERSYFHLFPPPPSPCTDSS

Chain of LRP6 (Homo sapiens) (O75581 20-1370): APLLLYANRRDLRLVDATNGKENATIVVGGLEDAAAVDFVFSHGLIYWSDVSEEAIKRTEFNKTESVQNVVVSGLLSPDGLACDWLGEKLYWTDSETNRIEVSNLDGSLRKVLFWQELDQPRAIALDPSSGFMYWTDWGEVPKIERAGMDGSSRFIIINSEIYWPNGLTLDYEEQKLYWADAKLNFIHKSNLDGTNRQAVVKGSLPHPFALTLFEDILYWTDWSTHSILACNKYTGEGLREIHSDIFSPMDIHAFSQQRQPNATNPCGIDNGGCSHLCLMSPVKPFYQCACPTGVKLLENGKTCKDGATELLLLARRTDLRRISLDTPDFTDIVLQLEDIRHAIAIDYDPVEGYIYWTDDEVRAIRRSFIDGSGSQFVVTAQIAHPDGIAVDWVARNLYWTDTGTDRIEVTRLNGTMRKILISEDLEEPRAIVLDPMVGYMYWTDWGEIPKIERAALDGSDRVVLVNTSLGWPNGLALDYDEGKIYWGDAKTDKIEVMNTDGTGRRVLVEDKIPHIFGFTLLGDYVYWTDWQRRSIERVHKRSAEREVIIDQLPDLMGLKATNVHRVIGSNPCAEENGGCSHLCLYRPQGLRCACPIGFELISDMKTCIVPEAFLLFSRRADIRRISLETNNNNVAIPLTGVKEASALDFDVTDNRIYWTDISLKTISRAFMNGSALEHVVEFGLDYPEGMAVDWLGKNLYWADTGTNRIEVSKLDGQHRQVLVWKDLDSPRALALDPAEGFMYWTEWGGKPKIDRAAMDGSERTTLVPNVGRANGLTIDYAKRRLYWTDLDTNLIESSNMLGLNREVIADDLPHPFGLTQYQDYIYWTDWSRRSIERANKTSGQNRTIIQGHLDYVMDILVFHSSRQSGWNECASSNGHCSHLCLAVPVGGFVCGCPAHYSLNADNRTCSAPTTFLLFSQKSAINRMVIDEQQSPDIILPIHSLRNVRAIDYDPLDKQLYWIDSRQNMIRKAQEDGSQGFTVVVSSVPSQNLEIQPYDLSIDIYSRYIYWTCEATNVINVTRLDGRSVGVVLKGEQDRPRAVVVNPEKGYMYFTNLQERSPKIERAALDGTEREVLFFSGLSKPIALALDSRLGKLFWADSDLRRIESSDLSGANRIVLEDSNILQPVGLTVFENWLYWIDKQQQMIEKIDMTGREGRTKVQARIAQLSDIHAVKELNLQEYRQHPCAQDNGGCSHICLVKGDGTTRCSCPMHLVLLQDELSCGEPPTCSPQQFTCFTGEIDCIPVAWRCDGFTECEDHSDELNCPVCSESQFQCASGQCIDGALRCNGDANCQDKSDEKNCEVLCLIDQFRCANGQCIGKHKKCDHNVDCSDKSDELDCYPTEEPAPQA

Molecule: Rspo1 (from UniProt Q2MKA7)
Kd (LRP6 (Homo sapiens)): 1.2 nM

Kd [1]: 3.3 nM
B1: recombinant mouse Mesd protein (natural protein, UniProt Q9ERE7 30-224, looked up)
chain: ADTPGEATPPPRKKKDIRDYNDADMARLLEQWEKDDDIEEGDLPEHKRPSAPIDFSKLDPGKPESILKMTKKGKTLMMFVTVSGNPTEKETEEITSLWQGSLFNANYDVQRFIVGSDRAIFMLRDGSYAWEIKDFLVSQDRCAEVTLEGQMYPGKGGGSKEKNKTKPEKAKKKEGDPKPRASKEDNRAGSRREDL
modifications: 125I-iodinated (IODO-GEN method) where used as radioligand; unlabelled where used as competitor
